According to patent EP1516629B1:
Changes are numbered by the printed parent chain.

T1: human CD11a (human) (UniProt P20701)
T1 sequence (looked up): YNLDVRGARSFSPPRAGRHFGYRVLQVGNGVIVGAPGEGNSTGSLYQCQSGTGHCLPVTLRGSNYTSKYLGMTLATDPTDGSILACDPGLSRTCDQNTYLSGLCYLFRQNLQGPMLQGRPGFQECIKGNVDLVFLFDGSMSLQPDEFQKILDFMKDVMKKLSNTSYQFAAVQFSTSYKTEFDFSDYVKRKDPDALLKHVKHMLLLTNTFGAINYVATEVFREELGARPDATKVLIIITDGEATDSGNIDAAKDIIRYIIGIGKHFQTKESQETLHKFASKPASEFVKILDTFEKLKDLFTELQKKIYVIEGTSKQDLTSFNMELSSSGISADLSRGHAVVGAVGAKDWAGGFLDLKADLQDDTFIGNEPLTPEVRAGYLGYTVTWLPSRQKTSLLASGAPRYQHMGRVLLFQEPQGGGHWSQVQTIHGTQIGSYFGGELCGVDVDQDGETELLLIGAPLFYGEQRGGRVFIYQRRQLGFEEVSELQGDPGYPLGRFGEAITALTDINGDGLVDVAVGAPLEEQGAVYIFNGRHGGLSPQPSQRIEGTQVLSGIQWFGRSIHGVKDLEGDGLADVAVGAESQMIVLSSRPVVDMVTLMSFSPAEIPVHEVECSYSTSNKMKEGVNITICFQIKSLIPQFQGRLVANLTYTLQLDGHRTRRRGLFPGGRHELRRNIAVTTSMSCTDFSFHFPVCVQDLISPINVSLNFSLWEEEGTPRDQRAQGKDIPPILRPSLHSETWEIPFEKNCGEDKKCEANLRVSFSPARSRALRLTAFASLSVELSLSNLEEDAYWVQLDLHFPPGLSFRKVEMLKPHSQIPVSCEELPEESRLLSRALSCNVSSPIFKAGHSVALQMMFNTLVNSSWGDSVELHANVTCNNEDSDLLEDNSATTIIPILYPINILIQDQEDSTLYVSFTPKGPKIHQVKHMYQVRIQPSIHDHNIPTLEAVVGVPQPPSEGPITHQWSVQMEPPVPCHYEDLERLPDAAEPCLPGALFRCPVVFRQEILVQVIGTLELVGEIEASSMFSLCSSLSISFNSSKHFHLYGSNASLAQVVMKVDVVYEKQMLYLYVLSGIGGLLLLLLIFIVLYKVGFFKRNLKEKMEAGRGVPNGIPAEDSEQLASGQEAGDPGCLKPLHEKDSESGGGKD

T2: rhesus CD11a (rhesus) (UniProt H9Z8N3)
T2 sequence: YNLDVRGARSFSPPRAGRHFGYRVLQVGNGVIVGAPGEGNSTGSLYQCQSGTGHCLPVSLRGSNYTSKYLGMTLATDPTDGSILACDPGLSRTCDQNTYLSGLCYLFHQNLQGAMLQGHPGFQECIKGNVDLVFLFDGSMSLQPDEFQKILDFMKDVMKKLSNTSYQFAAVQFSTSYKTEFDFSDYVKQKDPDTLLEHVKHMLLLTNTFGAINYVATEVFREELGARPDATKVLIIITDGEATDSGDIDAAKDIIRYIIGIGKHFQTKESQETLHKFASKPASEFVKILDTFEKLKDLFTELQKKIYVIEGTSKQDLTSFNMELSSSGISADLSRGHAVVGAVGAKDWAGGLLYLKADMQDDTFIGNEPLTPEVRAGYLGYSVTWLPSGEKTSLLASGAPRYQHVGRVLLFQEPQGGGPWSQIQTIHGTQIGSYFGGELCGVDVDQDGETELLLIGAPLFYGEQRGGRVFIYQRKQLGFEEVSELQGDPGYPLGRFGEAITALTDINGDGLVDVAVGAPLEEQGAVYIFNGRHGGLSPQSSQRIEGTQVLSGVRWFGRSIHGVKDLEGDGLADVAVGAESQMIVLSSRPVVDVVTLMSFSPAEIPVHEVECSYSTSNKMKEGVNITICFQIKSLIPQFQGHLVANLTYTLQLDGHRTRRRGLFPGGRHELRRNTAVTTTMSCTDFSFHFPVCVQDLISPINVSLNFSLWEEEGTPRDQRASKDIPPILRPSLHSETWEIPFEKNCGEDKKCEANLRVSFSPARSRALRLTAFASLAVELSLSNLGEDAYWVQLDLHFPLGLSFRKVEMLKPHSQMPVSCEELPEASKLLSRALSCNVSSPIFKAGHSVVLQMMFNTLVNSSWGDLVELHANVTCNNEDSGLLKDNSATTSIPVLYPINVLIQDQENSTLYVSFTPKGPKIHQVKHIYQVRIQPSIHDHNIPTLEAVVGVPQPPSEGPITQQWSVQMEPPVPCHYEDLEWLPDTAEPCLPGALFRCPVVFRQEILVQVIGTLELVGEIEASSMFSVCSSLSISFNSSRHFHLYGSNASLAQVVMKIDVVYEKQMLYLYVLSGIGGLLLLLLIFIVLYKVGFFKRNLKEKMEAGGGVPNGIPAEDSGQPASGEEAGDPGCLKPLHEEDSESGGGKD

B1: ThrL53Ala variant IgG1 (antibody, V domains shown)
VH: EVQLVESGGGLVQPGGSLRLSCAASGYSFTGHWMNWVRQAPGKGLEWVGMIHPSDSETRYNQKFKDRFTISVDKSKNTLYLQMNSLRAEDTAVYYCARGIYFYGTTYFDYWGQGTLVTVSS
VL: DIQMTQSPSSLSASVGDRVTITCRASKTISKYLAWYQQKPGKAPKLLIYSGSALQSGVPSRFSGSGSGTDFTLTISSLQPEDFATYYCQQHNEYPLTFGQGTKVEIKR
B2: AsnL92Ala variant IgG1 (antibody, V domains shown)
VH: B1 VH
VL: B1 VL with A53T, N92A
B3: LysH64Ala variant IgG1 (antibody, V domains shown)
VH: B1 VH with K65A
VL: DIQMTQSPSSLSASVGDRVTITCRASKTISKYLAWYQQKPGKAPKLLIYSGSTLQSGVPSRFSGSGSGTDFTLTISSLQPEDFATYYCQQHNEYPLTFGQGTKVEIK
B4: AspH54Ala variant IgG1 (antibody, V domains shown)
VH: B1 VH with D55A
VL: B3 VL
B5: LysH62Ala variant IgG1 (antibody, V domains shown)
VH: B1 VH with K63A
VL: B3 VL
B6: AspH65Ala variant IgG1 (antibody, V domains shown)
VH: B1 VH with D66A
VL: B3 VL
B7: AspH54Asn variant IgG1 (antibody, V domains shown)
VH: B1 VH with D55N
VL: B3 VL
B8: H2C7 variant IgG1 (antibody, V domains shown)
VH: B1 VH with H52A, S54A, D55A, E57A
VL: B3 VL
B9: SerH55Ala variant IgG1 (antibody, V domains shown)
VH: B1 VH with S56A
VL: B3 VL
B10: AspH54Gln variant IgG1 (antibody, V domains shown)
VH: B1 VH with D55Q
VL: B3 VL
B11: H2C10 variant IgG1 (antibody, V domains shown)
VH: B1 VH with H52A, S54A, D55A, E57S
VL: B3 VL
B12: ThrH30Ala variant IgG1 (antibody, V domains shown)
VH: B1 VH with T30A
VL: B3 VL
B13: H2A3 variant IgG1 (antibody, V domains shown)
VH: B1 VH with H52A, S56A
VL: B3 VL
B14: GluH56Ala variant IgG1 (antibody, V domains shown)
VH: B1 VH with E57A
VL: B3 VL
B15: SerH53Ala variant IgG1 (antibody, V domains shown)
VH: B1 VH with S54A
VL: B3 VL
B16: H2 variant IgG1 (antibody, V domains shown)
VH: B1 VH with H52A, S54A, S56A
VL: B3 VL
B17: HisH52Ala variant IgG1 (antibody, V domains shown)
VH: B1 VH with H52A
VL: B3 VL
B18: H2C9 variant IgG1 (antibody, V domains shown)
VH: B1 VH with H52A, S54A, D55A, E57N
VL: B3 VL
B19: ArgH58Ala variant IgG1 (antibody, V domains shown)
VH: B1 VH with R59A
VL: B3 VL
B20: GluL93Ala variant IgG1 (antibody, V domains shown)
VH: B1 VH
VL: B1 VL with A53T, E93A
B21: H2A1 variant IgG1 (antibody, V domains shown)
VH: B1 VH with H52A, S54A
VL: B3 VL
B22: H2A2 variant IgG1 (antibody, V domains shown)
VH: B1 VH with S54A, S56A
VL: B3 VL
B23: GlnH61Ala variant IgG1 (antibody, V domains shown)
VH: B1 VH with Q62A
VL: B3 VL
B24: GlyH31Ala variant IgG1 (antibody, V domains shown)
VH: B1 VH with G31A
VL: B3 VL
B25: H2C5 variant IgG1 (antibody, V domains shown)
VH: B1 VH with H52A, S54A, D55N, E57N
VL: B3 VL

These binders were tested against T1, human CD11a (human) (assay: FACScan, Jurkat cells).

Var.EC50/HuIgG1 EC50	Variant EC50/HulgG1 EC50	Binder
0.9		B1
3.3		B2
2.5		B3
147	147	B4
1.8		B5
0.8		B6
	26	B7
2.4		B8
1.3		B9
	20	B10
14.2		B11
1.7		B12
4.6		B13
4		B14
1.8		B15
14.1		B16
1.5		B17
34.3		B18
1.1		B19
1.7		B20
10.8		B21
1.9		B22
4.1		B23
1.2		B24
46		B25

These binders were tested against T2, rhesus CD11a (rhesus) (assay: binding to rhesus peripheral blood lymphocytes).

Var.EC50/HuIgG1 EC50	Variant EC50/HulgG1 EC50	fold improvement in binding over HuIgG1 [fold]	fold better binding than HuIgG1 [fold]	Binder
0.7				B1
3.3				B2
1.2				B3
0.3	0.3	3		B4
4.9				B5
1.1				B6
	0.1	10		B7
1.03				B8
1.3				B9
	4.4			B10
0.22				B11
1.3				B12
1.3				B13
0.3		3		B14
0.7				B15
0.055			18	B16
0.7				B17
0.22				B18
3.3				B19
2.9				B20
0.013		77		B21
1.1				B22
5.3				B23
2.4				B24
0.11				B25
